{
  "source": "paper PMC11271488",
  "about": "“The AKT2/SIRT5/TFEB pathway as a potential therapeutic target in non-neovascular AMD” (Nature Communications, 2024)",
  "binders": {"B1": {"name": "recombinant AKT2 (RAC-beta serine/threonine-protein kinase) (enzyme, human, UniProt P31751 1-481, looked up)", "chain": "MNEVSVIKEGWLHKRGEYIKTWRPRYFLLKSDGSFIGYKERPEAPDQTLPPLNNFSVAECQLMKTERPRPNTFVIRCLQWTTVIERTFHVDSPDEREEWMRAIQMVANSLKQRAPGEDPMDYKCGSPSDSSTTEEMEVAVSKARAKVTMNDFDYLKLLGKGTFGKVILVREKATGRYYAMKILRKEVIIAKDEVAHTVTESRVLQNTRHPFLTALKYAFQTHDRLCFVMEYANGGELFFHLSRERVFTEERARFYGAEIVSALEYLHSRDVVYRDIKLENLMLDKDGHIKITDFGLCKEGISDGATMKTFCGTPEYLAPEVLEDNDYGRAVDWWGLGVVMYEMMCGRLPFYNQDHERLFELILMEEIRFPRTLSPEAKSLLAGLLKKDPKQRLGGGPSDAKEVMEHRFFLSINWQDVVQKKLLPPFKPQVTSEVDTRYFDDEFTAQSITITPPDRYDSLGLLELDQRTHFPQFSYSASIRE", "notes": "AKT2, RAC-beta serine/threonine-protein kinase; recombinant protein used as the probe on the HuProt v3.1 array; source: recombinant"}},
  "target": "T1, Synaptotagmin Like 1 (SYTL1), on the HuProt v3.1 human proteome array (human, UniProt Q8IYJ3 1-562)",
  "T1 construct": "Synaptotagmin Like 1 (SYTL1), human; as arrayed on HuProt v3.1; source: spotted on the HuProt v3.1 human proteome array (CDI NextGen Proteomics)",
  "T1 sequence (looked up)": "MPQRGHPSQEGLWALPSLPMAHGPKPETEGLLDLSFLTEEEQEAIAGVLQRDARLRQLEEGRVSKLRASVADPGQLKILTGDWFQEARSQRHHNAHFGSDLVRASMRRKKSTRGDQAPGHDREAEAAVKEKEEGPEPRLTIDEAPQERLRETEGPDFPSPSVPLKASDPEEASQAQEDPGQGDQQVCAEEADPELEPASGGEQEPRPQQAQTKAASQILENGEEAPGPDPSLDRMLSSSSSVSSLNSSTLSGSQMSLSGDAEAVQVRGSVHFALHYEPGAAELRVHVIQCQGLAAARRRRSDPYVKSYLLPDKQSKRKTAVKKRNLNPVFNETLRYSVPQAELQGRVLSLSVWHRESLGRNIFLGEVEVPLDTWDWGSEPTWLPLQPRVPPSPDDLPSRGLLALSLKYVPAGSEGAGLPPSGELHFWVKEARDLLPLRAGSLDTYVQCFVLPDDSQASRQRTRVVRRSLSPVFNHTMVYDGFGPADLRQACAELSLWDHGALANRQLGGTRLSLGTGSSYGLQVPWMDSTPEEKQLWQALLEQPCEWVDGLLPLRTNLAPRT",
  "experiment": "peptide or protein array; HuProt v3.1 human proteome array probed with recombinant AKT2 at 1 ug/mL; GenePix analysis; only interactions with a Z-score above 6 considered",
  "conditions": "both partners purified",
  "data": [
    {"binder": "B1", "values": [
      {"measurement": "binding result", "result": "binds"}
    ]}
  ]
}
